These results are taken from PMC10872465 (Molecular cell, 2023).

First the molecules themselves.
T1: MBP-HDAC8 (UniProt Q9BY41 8-374)
T1 sequence (looked up): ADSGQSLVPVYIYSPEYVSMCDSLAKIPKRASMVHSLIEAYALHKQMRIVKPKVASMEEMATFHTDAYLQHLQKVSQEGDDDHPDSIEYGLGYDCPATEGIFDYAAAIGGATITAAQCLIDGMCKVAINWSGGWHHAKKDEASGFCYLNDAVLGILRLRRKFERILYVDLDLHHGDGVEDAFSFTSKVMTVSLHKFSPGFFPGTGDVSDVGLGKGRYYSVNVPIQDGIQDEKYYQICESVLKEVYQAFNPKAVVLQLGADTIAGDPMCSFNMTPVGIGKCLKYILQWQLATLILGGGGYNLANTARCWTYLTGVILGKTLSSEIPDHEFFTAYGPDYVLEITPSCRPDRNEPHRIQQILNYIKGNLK

B1: hRpn2 (940–953) (peptide, UniProt Q99460 940-953, looked up)
chain: QEPEPPEPFEYIDD
B2: hRpn13 (1–150) (domain or fragment, human, UniProt Q16186 1-150, looked up)
chain: MTTSGALFPSLVPGSRGASNKYLVEFRAGKMSLKGTTVTPDKRKGLVYIQQTDDSLIHFCWKDRTSGNVEDDLIIFPDDCEFKRVPQCPSGRVYVLKFKAGSKRLFFWMQEPKTDQDEEHCRKVNEYLNNPPMPGALGASGSSGHELSAL

What all share (experiment): NMR titration
The target of the assay “hRpn13 (1–150)” is B2.
The target in a further assay is PADI4 (1–663) (UniProt Q9UM07 1-663).
The target of a further assay is T1, MBP-HDAC8.

PADI4 (1–663), sequence (Q9UM07 whole entry): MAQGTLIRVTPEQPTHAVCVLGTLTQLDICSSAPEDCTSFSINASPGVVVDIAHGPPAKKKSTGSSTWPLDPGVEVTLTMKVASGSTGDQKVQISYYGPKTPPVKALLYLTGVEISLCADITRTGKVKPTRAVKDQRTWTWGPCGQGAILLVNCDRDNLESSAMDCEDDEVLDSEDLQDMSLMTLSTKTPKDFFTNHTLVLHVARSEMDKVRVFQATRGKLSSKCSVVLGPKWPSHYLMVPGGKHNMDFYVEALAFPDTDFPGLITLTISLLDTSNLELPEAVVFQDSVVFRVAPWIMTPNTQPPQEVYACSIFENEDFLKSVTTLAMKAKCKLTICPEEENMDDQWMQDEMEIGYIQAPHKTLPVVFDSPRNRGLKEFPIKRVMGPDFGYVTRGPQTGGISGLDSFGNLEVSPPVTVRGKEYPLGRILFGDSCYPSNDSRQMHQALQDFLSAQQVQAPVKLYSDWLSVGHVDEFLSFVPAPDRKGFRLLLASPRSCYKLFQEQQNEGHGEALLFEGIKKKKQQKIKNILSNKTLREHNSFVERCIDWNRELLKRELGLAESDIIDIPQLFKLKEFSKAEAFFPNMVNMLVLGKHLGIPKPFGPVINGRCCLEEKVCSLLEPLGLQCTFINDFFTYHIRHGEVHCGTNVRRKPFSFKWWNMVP

For B1, in the assay with hRpn13 (1–150), the binding result was “binds”.

As to B2, the binding result in the assay with PADI4 (1–663) and with MBP-HDAC8 was “binds” throughout.
